Assay results taken from publication PMC4351203.

Tests used:
Settings in all cases: reference: wild type; sites Y554
Hic-5 (Myc-tagged) = Hic-5 (Myc-tagged) (UniProt Q62219); assay: anti-FLAG co-IP, anti-Myc blot
[1] = target: paxillin (Myc-tagged; endogenous in mouse brain) (UniProt Q8VI36); assay: anti-FLAG co-IP, anti-Myc blot
[2] = target: paxillin (endogenous, HEK293T) (UniProt P49023); assay: anti-FLAG IP, FLAG-peptide elution, Western blot
[3] = target: Hic-5 (endogenous, HEK293T) (UniProt O43294); assay: anti-FLAG IP, FLAG-peptide elution, Western blot

binding against the reference (Hic-5 (Myc-tagged)): stronger
binding against the reference [1]: stronger
binding against the reference [2]: stronger
binding against the reference [3]: stronger
Substance: Git1 (FLAG-, YFP-tagged, transfected) (from UniProt Q9Z272) Y554F
